Results as given in US20220040297A1 (Chugai, published 2022).
Where a chain is given by its changes, count along the chain named.

B1: GLS3000 K50P (antibody, name in Kabat numbering, V domains shown)
VH: QVQLVESGGGVVQPGRSLRLSCAASGFTFSNAWMHWVRQAPGKGLEWVAQIKAKSNNYATYYAESVKGRFTISRDDSKNSLYLQMNSLKTEDTAVYYCRYVHYGAYYGVDAWGQGTTVTVSS
VL: DIVMTQSPLSLPVTPGEPASISCRSSQSLVHSNRNTYLHWYQQKPGQAPRLLIYPVSNRFSGVPDRFSGSGSGTDFTLKISRVEAEDVGVYYCGQGTQVPYTFGQGTKLEIK
notes: one-arm format as m2
B2: GLS3000 L27bI (antibody, name in Kabat numbering, V domains shown)
VH: B1 VH
VL: B1 VL with L29I, P55K
notes: one-arm format as m2
B3: GLS3000 N28F (antibody, name in Kabat numbering, V domains shown)
VH: B1 VH
VL: B1 VL with N33F, P55K
notes: one-arm format as m2
B4: GLS3000 N28D (antibody, name in Kabat numbering, V domains shown)
VH: B1 VH
VL: B1 VL with N33D, P55K
notes: one-arm format as m2
B5: GLS3000 L33A (antibody, name in Kabat numbering, V domains shown)
VH: B1 VH
VL: B1 VL with L38A, P55K
notes: one-arm format as m2
B6: GLS3000 N28P (antibody, name in Kabat numbering, V domains shown)
VH: B1 VH
VL: B1 VL with N33P, P55K
notes: one-arm format as m2
B7: GLS3000 N28Q (antibody, name in Kabat numbering, V domains shown)
VH: B1 VH
VL: B1 VL with N33Q, P55K
notes: one-arm format as m2
B8: GLS3000 K50T (antibody, name in Kabat numbering, V domains shown)
VH: B1 VH
VL: B1 VL with P55T
notes: one-arm format as m2
B9: GLS3000 N28M (antibody, name in Kabat numbering, V domains shown)
VH: B1 VH
VL: B1 VL with N33M, P55K
notes: one-arm format as m2
B10: GLS3000 L33V (antibody, name in Kabat numbering, V domains shown)
VH: B1 VH
VL: B1 VL with L38V, P55K
notes: one-arm format as m2
B11: GLS3000 L33P (antibody, name in Kabat numbering, V domains shown)
VH: B1 VH
VL: B1 VL with L38P, P55K
notes: one-arm format as m2
B12: GLS3000 L27bF (antibody, name in Kabat numbering, V domains shown)
VH: B1 VH
VL: B1 VL with L29F, P55K
notes: one-arm format as m2
B13: GLS3000 L33E (antibody, name in Kabat numbering, V domains shown)
VH: B1 VH
VL: B1 VL with L38E, P55K
notes: one-arm format as m2
B14: GLS3000 K50Q (antibody, name in Kabat numbering, V domains shown)
VH: B1 VH
VL: B1 VL with P55Q
notes: one-arm format as m2
B15: GLS3000 L33M (antibody, name in Kabat numbering, V domains shown)
VH: B1 VH
VL: B1 VL with L38M, P55K
notes: one-arm format as m2
B16: GLS3000 K50S (antibody, name in Kabat numbering, V domains shown)
VH: B1 VH
VL: B1 VL with P55S
notes: one-arm format as m2
B17: GLS3000 L27bS (antibody, name in Kabat numbering, V domains shown)
VH: B1 VH
VL: B1 VL with L29S, P55K
notes: one-arm format as m2
B18: GLS3000 K74T (antibody, name in Kabat numbering, V domains shown)
VH: B1 VH
VL: B1 VL with P55K, K79T
notes: one-arm format as m2
B19: GLS3000 N28W (antibody, name in Kabat numbering, V domains shown)
VH: B1 VH
VL: B1 VL with N33W, P55K
notes: one-arm format as m2
B20: GLS3000 K50Y (antibody, name in Kabat numbering, V domains shown)
VH: B1 VH
VL: B1 VL with P55Y
notes: one-arm format as m2
B21: GLS3000 L27bV (antibody, name in Kabat numbering, V domains shown)
VH: B1 VH
VL: B1 VL with L29V, P55K
notes: one-arm format as m2
B22: GLS3000 L33F (antibody, name in Kabat numbering, V domains shown)
VH: B1 VH
VL: B1 VL with L38F, P55K
notes: one-arm format as m2
B23: GLS3000 N28H (antibody, name in Kabat numbering, V domains shown)
VH: B1 VH
VL: B1 VL with N33H, P55K
notes: one-arm format as m2
B24: GLS3000 N28G (antibody, name in Kabat numbering, V domains shown)
VH: B1 VH
VL: B1 VL with N33G, P55K
notes: one-arm format as m2
B25: GLS3000 N28L (antibody, name in Kabat numbering, V domains shown)
VH: B1 VH
VL: B1 VL with N33L, P55K
notes: one-arm format as m2
B26: GLS3000 L27bP (antibody, name in Kabat numbering, V domains shown)
VH: B1 VH
VL: B1 VL with L29P, P55K
notes: one-arm format as m2
B27: GLS3000 N28V (antibody, name in Kabat numbering, V domains shown)
VH: B1 VH
VL: B1 VL with N33V, P55K
notes: one-arm format as m2
B28: GLS3000 N28A (antibody, name in Kabat numbering, V domains shown)
VH: B1 VH
VL: B1 VL with N33A, P55K
notes: one-arm format as m2
B29: GLS3000 N28S (antibody, name in Kabat numbering, V domains shown)
VH: B1 VH
VL: B1 VL with N33S, P55K
notes: one-arm format as m2
B30: GLS3000 N28I (antibody, name in Kabat numbering, V domains shown)
VH: B1 VH
VL: B1 VL with N33I, P55K
notes: one-arm format as m2
B31: GLS3000 L27bY (antibody, name in Kabat numbering, V domains shown)
VH: B1 VH
VL: B1 VL with L29Y, P55K
notes: one-arm format as m2
B32: GLS3000 L33I (antibody, name in Kabat numbering, V domains shown)
VH: B1 VH
VL: B1 VL with L38I, P55K
notes: one-arm format as m2
B33: GLS3000 L27bE (antibody, name in Kabat numbering, V domains shown)
VH: B1 VH
VL: B1 VL with L29E, P55K
notes: one-arm format as m2
B34: GLS3000 L33D (antibody, name in Kabat numbering, V domains shown)
VH: B1 VH
VL: B1 VL with L38D, P55K
notes: one-arm format as m2
B35: GLS3000 L27bM (antibody, name in Kabat numbering, V domains shown)
VH: B1 VH
VL: B1 VL with L29M, P55K
notes: one-arm format as m2
B36: GLS3000 N28T (antibody, name in Kabat numbering, V domains shown)
VH: B1 VH
VL: B1 VL with N33T, P55K
notes: one-arm format as m2
B37: GLS3000 N28Y (antibody, name in Kabat numbering, V domains shown)
VH: B1 VH
VL: B1 VL with N33Y, P55K
notes: one-arm format as m2
B38: GLS3000 L27bD (antibody, name in Kabat numbering, V domains shown)
VH: B1 VH
VL: B1 VL with L29D, P55K
notes: one-arm format as m2
B39: GLS3000 N28E (antibody, name in Kabat numbering, V domains shown)
VH: B1 VH
VL: B1 VL with N33E, P55K
notes: one-arm format as m2
B40: GLS3000 L27bW (antibody, name in Kabat numbering, V domains shown)
VH: B1 VH
VL: B1 VL with L29W, P55K
notes: one-arm format as m2
B41: GLS3000 N28K (antibody, name in Kabat numbering, V domains shown)
VH: B1 VH
VL: B1 VL with N33K, P55K
notes: one-arm format as m2
B42: GLS3000 K50R (antibody, name in Kabat numbering, V domains shown)
VH: B1 VH
VL: B1 VL with P55R
notes: one-arm format as m2
B43: GLS3000 K107E (antibody, name in Kabat numbering, V domains shown)
VH: B1 VH
VL: B1 VL with P55K, K112E
notes: one-arm format as m2

The binders below were run against CD3ε homodimer protein (human, UniProt P07766 23-126, limits assumed) (assay: SPR, immobilized CD3ε homodimer;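 further: biacore T200 surface plasmon resonance at 25 °C, antibody variants flowed as analytes over amine-coupled CD3ε homodimer on a CM4 chip, variant binding amount divided by that of GLS3000 antibody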).
Sequence of CD3ε homodimer protein (P07766 23-126 limits assumed): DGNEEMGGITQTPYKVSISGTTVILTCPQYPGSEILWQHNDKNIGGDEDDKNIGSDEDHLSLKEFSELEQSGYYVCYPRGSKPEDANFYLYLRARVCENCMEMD
Description: Each one-amino acid altered form constructed, expressed, and purified in the paragraph (6-2) was evaluated using Biacore T200 (GE Healthcare Japan Corp.). An appropriate amount of CD3ε homodimer protein was immobilized onto Sensor chip CM4 (GE Healthcare Japan Corp.) by the amine coupling method. Then, the antibody having an appropriate concentration was injected thereto as an analyte and allowed to interact with the CD3ε homodimer protein on the sensor chip. Then, the sensor chip was regenerated by the injection of 10 mmol/L glycine-HCl (pH 1.5). The assay was conducted at 25° C., and HBS-EP+ (GE Healthcare Japan Corp.) was used as a running buffer. […] Each parameter was calculated using Biacore T200 Evaluation Software (GE Healthcare Japan Corp.).
Specifically, when the amount of the GLS3000-containing antibody bound was defined as X and the amount of the L chain one-amino acid altered form bound was defined as Y, a value of Z (ratio of amounts bound)=Y/X was used.

Row | Binder | ratio of amounts bound (vs GLS3000)
1 | B1 | 0.3
2 | B2 | 1.19
3 | B3 | 0.46
4 | B4 | 0.19
5 | B5 | 0.85
6 | B6 | 0.36
7 | B7 | 0.37
8 | B8 | 0.19
9 | B9 | 0.39
10 | B10 | 1.05
11 | B11 | 0.3
12 | B12 | 0.42
13 | B13 | 0.72
14 | B14 | 0.18
15 | B15 | 0.93
16 | B16 | 0.23
17 | B17 | 0.71
18 | B18 | 0.84
19 | B19 | 0.41
20 | B20 | 0.24
21 | B21 | 1.12
22 | B22 | 0.78

Row | Binder | ratio of amounts bound (vs GLS3000)
23 | B23 | 0.42
24 | B24 | 0.46
25 | B25 | 0.39
26 | B26 | 0.91
27 | B27 | 0.36
28 | B28 | 0.25
29 | B29 | 0.32
30 | B30 | 0.44
31 | B31 | 0.25
32 | B32 | 0.83
33 | B33 | 0.17
34 | B34 | 0.17
35 | B35 | 0.71
36 | B36 | 0.45
37 | B37 | 0.26
38 | B38 | 0.17
39 | B39 | 0.4
40 | B40 | 0.26
41 | B41 | 0.44
42 | B42 | 0.5
43 | B43 | 0.94
